Experimental data: publication PMC12401477 (Cell reports, 2025)

Tests used:
mass photometry [1] = molecular target: the molecule itself; assay: mass photometry
mass photometry [2] = molecular target: the molecule itself; assay: mass photometry; remark: listed apart in the source

B1: N-terminally extended IRF7 isoform (exIRF7, intron 1 retained) with C-terminal 3xFLAG tag (natural protein, human, UniProt Q92985-4 1-516, looked up)
chain: MPVPERPAAGPDSPRPGTRRAAPRVLFGEWLLGEISSGCYEGLQWLDEARTCFRVPWKHFARKDLSEADARIFKAWAVARGRWPPSSRGGGPPPEAETAERAGWKTNFRCALRSTRRFVMLRDNSGDPADPHKVYALSRELCWREGPGTDQTEAEAPAAVPPPQGGPPGPFLAHTHAGLQAPGPLPAPAGDKGDLLLQAVQQSCLADHLLTASWGADPVPTKAPGEGQEGLPLTGACAGGPGLPAGELYGWAVETTPSPGPQPAALTTGEAAAPESPHQAEPYLSPSPSACTAVQEPSPGALDVTIMYKGRTVLQKVVGHPSCTFLYGPPDPAVRATDPQQVAFPSPAELPDQKQLRYTEELLRHVAPGLHLELRGPQLWARRMGKCKVYWEVGGPPGSASPSTPACLLPRNCDTPIFDFRVFFQELVEFRARQRRGSPRYTIYLGFGQDLSAGRPKEKSLVLVKLEPWLCRVHLEGTQREGVSSLDSSSLSLCLSSANSLYDDIECFLMELEQPA
modifications: phosphorylated (sites not given)
fold tighter Kd of dimerization than cIRF7 (mass photometry [1]): ~6 fold
stoichiometry N (mass photometry [2]): 2
